Reference: patent US20140303084
Changes are numbered by the printed parent chain.

How the values were obtained:
KLTCLASYCFLF = test system: T1, KLTCLASYCFLF
T1 sequence: KLTCLASYCFLF

KKLTCLASYCWLF = test system: T2, KKLTCLASYCWLF
T2 sequence: KKLTCLASYCWLF

GVEDRQLTCLASSCWVFSRHSV = test system: T3, GVEDRQLTCLASSCWVFSRHSV
T3 sequence: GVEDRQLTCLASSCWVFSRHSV

[1] = test system: T4, RRAPGKLTCLASYCWLF WTGYA SGKPSRVYVI
T4 sequence: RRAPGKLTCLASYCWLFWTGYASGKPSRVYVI

[2] = test system: T5, SKQGRPASPDrRAAGKLTCLASYCWLFWTGIA
T5 sequence: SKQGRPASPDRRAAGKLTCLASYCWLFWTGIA

[3] = test system: T6, RRAPGKLTCLASYCWLF WTGWS RDTASHASDS
T6 sequence: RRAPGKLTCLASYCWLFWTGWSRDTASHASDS

[4] = test system: T7, GRAMAAEPWP RQAPG KLTCLASYCWLFWTGIA
T7 sequence: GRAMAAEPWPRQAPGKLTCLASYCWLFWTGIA

RRAPGKLTCLASYCWLFWTGiA [5] = test system: T8, RRAPGKLTCLASYCWLFWTGiA
T8 sequence: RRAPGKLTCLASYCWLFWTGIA

Orn-LTCLASYCWLF = test system: T9, Orn-LTCLASYCWLF
T9 sequence: XLTCLASYCWLF

[6] = test system: T10, SKQARPISPDrRAAGKLTCLASYCWLFWTGIA
T10 sequence: T5 sequence with G4A, A7I

[7] = test system: T11, (KLTCLASYCWLFG)2═N-O-(CH2)3-O-N═
T11 sequence: KLTCLASYCWLFG

[8] = test system: T12, rRAPGKLTCLASYCWLFWTGIA-PEG4-C(N-PEG5k maleimide)
T12 sequence: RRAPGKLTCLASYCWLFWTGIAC

KLTCLASACWLF = test system: T13, KLTCLASACWLF
T13 sequence: KLTCLASACWLF

GDSGRKLSCLGSYCWLSVQFMA = test system: T14, GDSGRKLSCLGSYCWLSVQFMA
T14 sequence: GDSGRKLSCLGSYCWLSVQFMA

[9] = test system: T15, SKQGRPISSDrRAAGKLTCLASYCWLFWTGIA
T15 sequence: T5 sequence with A7I, P9S

RRCPGKLQALASYCWLFWTGIA = test system: T16, RRCPGKLQALASYCWLFWTGIA
T16 sequence: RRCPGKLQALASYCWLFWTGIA

GASGRRRTCVASYCLLFQSGLP = test system: T17, GASGRRRTCVASYCLLFQSGLP
T17 sequence: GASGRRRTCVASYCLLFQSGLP

[10] = test system: T18, AKQGRPISPDrRAAGKLTCLASYCWLFWTGIA
T18 sequence: T5 sequence with S1A, A7I

KLTCLKSYCWLF = test system: T19, KLTCLKSYCWLF
T19 sequence: KLTCLKSYCWLF

RRRKLTCLASYCWLFRRR = test system: T20, RRRKLTCLASYCWLFRRR
T20 sequence: RRRKLTCLASYCWLFRRR

[11] = test system: T21, RSHSLDRMAG RRAPG KLTCLASYCWLFWTGIA
T21 sequence: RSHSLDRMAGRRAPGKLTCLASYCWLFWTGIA

RRAPGKLQCLASYCWLFWTGLA = test system: T22, RRAPGKLQCLASYCWLFWTGLA
T22 sequence: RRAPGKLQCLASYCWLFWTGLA

RRAPGKLQCLASYCWLFWTGIK = test system: T23, RRAPGKLQCLASYCWLFWTGIK
T23 sequence: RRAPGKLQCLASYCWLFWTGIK

[12] = test system: T24, PRIRTVGPGSRSASGKLTCIASYCWLFWTGIA
T24 sequence: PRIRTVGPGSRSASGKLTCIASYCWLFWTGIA

PGKLQCLASYCWLFWTGIA = test system: T25, PGKLQCLASYCWLFWTGIA
T25 sequence: PGKLQCLASYCWLFWTGIA

compound 20 = test system: T26, compound 20
T26 sequence: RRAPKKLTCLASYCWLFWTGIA

rRAPGKLTCLASYCWLFSTGIA = test system: T27, rRAPGKLTCLASYCWLFSTGIA
T27 sequence: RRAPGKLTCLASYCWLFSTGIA

[13] = test system: T28, RRAPGKLCALASYCWLFWTGIA-COOH
T28 sequence: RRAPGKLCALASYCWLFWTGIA

[14] = test system: T29, PRIRTVGPGSRSASGKSTCLASYCWLFWTGIA
T29 sequence: T24 sequence with L17S, I20L

KLTCLAAYCWLF = test system: T30, KLTCLAAYCWLF
T30 sequence: KLTCLAAYCWLF

[15] = test system: T31, QWQIAGQVLKRRAPA KLTCLASYCWLFWTGIA
T31 sequence: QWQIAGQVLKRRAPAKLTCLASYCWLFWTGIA

[16] = test system: T32, PRIRTVGPGSRSASGKLTCLASYCWLFWTFIA
T32 sequence: T24 sequence with I20L, G30F

[17] = test system: T33, SRIRTVGPGSRSASGKSTCLASYCWLFWTGIA
T33 sequence: T24 sequence with P1S, L17S, I20L

[18] = test system: T34, RRAPGKLTCLASYCWLFWT-Sar-IA
T34 sequence: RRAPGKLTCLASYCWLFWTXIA

compound 3 = test system: T35, compound 3
T35 sequence: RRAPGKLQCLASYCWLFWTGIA

rRAPGKLTCLASSCWLFWTGIA = test system: T36, rRAPGKLTCLASSCWLFWTGIA
T36 sequence: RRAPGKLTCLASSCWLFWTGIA

RRAPGKLTCLAsYCWLFWTGIA [19] = test system: T37, RRAPGKLTCLAsYCWLFWTGIA
T37 sequence: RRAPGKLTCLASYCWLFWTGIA

[20] = test system: T38, C(PEG5k)GGG-RRAPGKLT-Asp-LASY-Lys-WLFWTGIA
T38 sequence: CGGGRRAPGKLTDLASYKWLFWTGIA

[21] = test system: T39, RRAPGKLTCLASYCWLF WTGFA FRVGLASSLY
T39 sequence: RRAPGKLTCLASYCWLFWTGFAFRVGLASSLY

[22] = test system: T40, RRK(PEG2-Biotin)PGKLTCLASYCWLFWTGIA
T40 sequence: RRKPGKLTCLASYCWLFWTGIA

KL-MeThr-CLASYCWLF = test system: T41, KL-MeThr-CLASYCWLF
T41 sequence: KLTCLASYCWLF

CRRAPGKLQCLASYCWLFWTGIAC = test system: T42, CRRAPGKLQCLASYCWLFWTGIAC
T42 sequence: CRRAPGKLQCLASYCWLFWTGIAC

[23] = test system: T43, RRAPGKLTCLASYCWLF WTTWT TAPTTPPLTT
T43 sequence: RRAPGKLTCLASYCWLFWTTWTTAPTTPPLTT

[24] = test system: T44, PRIRTVGPGSRSASGKLTCLASYCWLFWTLIA
T44 sequence: T24 sequence with I20L, G30L

RRAPGkLTCLASYCWLFWTGIA [25] = test system: T45, RRAPGkLTCLASYCWLFWTGIA
T45 sequence: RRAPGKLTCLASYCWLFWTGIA

[26] = test system: T46, PRIRTVGPGSRSASGKLTCAASYCWLFWTGIA
T46 sequence: T24 sequence with I20A

[27] = test system: T47, RRAPGKLT-Asp-LASY-Lys-WLFWTGIA-CONH2
T47 sequence: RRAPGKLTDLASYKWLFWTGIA

human Factor IXa was tested. Which Vmax, FXa generation assay (KLTCLASYCFLF) did it give?
The Vmax, FXa generation assay was over 3.

What about the Vmax, FXa generation assay (KKLTCLASYCWLF) of the same substance?
Its Vmax, FXa generation assay is over 3.

And the “Vmax, FXa generation assay; (++) means 1-2” value (“Vmax … (++) means 1-2” below) (GVEDRQLTCLASSCWVFSRHSV)?
Its value is “(++)”.

And the Vmax, FXa generation assay [1]?
Its Vmax, FXa generation assay is over 3.

What about the Vmax, FXa generation assay [2] of the same substance?
The Vmax, FXa generation assay was over 2.

What about the Vmax, FXa generation assay [3] of the same substance?
Its Vmax, FXa generation assay is over 2.

What about the Vmax, FXa generation assay [4] of the same substance?
Its Vmax, FXa generation assay is over 2.

And the “Vmax … (++) means 1-2” value (RRAPGKLTCLASYCWLFWTGiA [5])?
The value was “(++)”.

And the “Vmax … (++) means 1-2” value (Orn-LTCLASYCWLF)?
The value was “(++)”.

What about the Vmax, FXa generation assay [6] of the same substance?
Its Vmax, FXa generation assay is over 3.

What about the Vmax, FXa generation assay [7] of the same substance?
The Vmax, FXa generation assay was over 3.

What about the Vmax, FXa generation assay [8] of the same substance?
The Vmax, FXa generation assay was over 2.

What about the Vmax, FXa generation assay (KLTCLASACWLF) of the same substance?
Its Vmax, FXa generation assay is over 2.

What about the “Vmax … (++) means 1-2” value (GDSGRKLSCLGSYCWLSVQFMA) of the same substance?
The value was “(++)”.

What about the Vmax, FXa generation assay [9] of the same substance?
The Vmax, FXa generation assay was over 3.

What about the Vmax, FXa generation assay (RRCPGKLQALASYCWLFWTGIA) of the same substance?
The Vmax, FXa generation assay was over 2.

And the Vmax, FXa generation assay (GASGRRRTCVASYCLLFQSGLP)?
Its Vmax, FXa generation assay is over 0.1.

What about the Vmax, FXa generation assay [10] of the same substance?
The Vmax, FXa generation assay was over 3.

What about the “Vmax … (++) means 1-2” value (KLTCLKSYCWLF) of the same substance?
The value was “(++)”.

And the “Vmax … (++) means 1-2” value (RRRKLTCLASYCWLFRRR)?
Its value is “(++)”.

What about the Vmax, FXa generation assay [11] of the same substance?
The Vmax, FXa generation assay was over 3.

What about the Vmax, FXa generation assay (RRAPGKLQCLASYCWLFWTGLA) of the same substance?
The Vmax, FXa generation assay was over 2.

What about the “Vmax … (++) means 1-2” value (RRAPGKLQCLASYCWLFWTGIK) of the same substance?
The value was “(++)”.

What about the Vmax, FXa generation assay [12] of the same substance?
Its Vmax, FXa generation assay is over 2.

And the Vmax, FXa generation assay (PGKLQCLASYCWLFWTGIA)?
The Vmax, FXa generation assay was over 2.

And the Vmax, FXa generation assay with hFIXa (compound 20)?
Its Vmax, FXa generation assay with hFIXa is over 2.

And the “Vmax … (++) means 1-2” value (rRAPGKLTCLASYCWLFSTGIA)?
The value was “(++)”.

And the Vmax, FXa generation assay [13]?
Its Vmax, FXa generation assay is over 2.

What about the Vmax, FXa generation assay [14] of the same substance?
The Vmax, FXa generation assay was over 3.

And the “Vmax … (++) means 1-2” value (KLTCLAAYCWLF)?
The value was “(++)”.

And the Vmax, FXa generation assay [15]?
Its Vmax, FXa generation assay is over 2.

And the Vmax, FXa generation assay [16]?
Its Vmax, FXa generation assay is over 2.

What about the Vmax, FXa generation assay [17] of the same substance?
Its Vmax, FXa generation assay is over 3.

And the Vmax, FXa generation assay [18]?
The Vmax, FXa generation assay was over 3.

And the KM (nM) of hFIXa for FX (compound 3)?
The KM (nM) of hFIXa for FX was 16 nM.

And the Vmax (mOD/min min), with phospholipids (compound 3)?
Its Vmax (mOD/min min), with phospholipids is 3.9 mOD/min min.

What about the Vmax (mOD/min min), without phospholipids (compound 3) of the same substance?
The Vmax (mOD/min min), without phospholipids was 2.77 mOD/min min.

What about the Vmax, FXa generation assay with hFIXa (compound 3) of the same substance?
The Vmax, FXa generation assay with hFIXa was over 3.

What about the kcat (min^-1) of hFIXa for FX, compound at 1 µM (compound 3) of the same substance?
Its kcat (min^-1) of hFIXa for FX, compound at 1 µM is 0.0177 min⁻¹.

And the Δ KM (Km compound/Km buffer) (compound 3)?
The Δ KM (Km compound/Km buffer) was 0.21.

What about the “Vmax … (++) means 1-2” value (rRAPGKLTCLASSCWLFWTGIA) of the same substance?
The value was “(++)”.

What about the “Vmax … (++) means 1-2” value (RRAPGKLTCLAsYCWLFWTGIA [19]) of the same substance?
The value was “(++)”.

And the “Vmax … (++) means 1-2” value [20]?
Its value is “(++)”.

What about the Vmax, FXa generation assay [21] of the same substance?
Its Vmax, FXa generation assay is over 3.

And the “Vmax … (++) means 1-2” value [22]?
Its value is “(++)”.

What about the “Vmax … (++) means 1-2” value (KL-MeThr-CLASYCWLF) of the same substance?
Its value is “(++)”.

And the Vmax, FXa generation assay (CRRAPGKLQCLASYCWLFWTGIAC)?
The Vmax, FXa generation assay was over 2.

What about the Vmax, FXa generation assay [23] of the same substance?
Its Vmax, FXa generation assay is over 2.

What about the Vmax, FXa generation assay [24] of the same substance?
The Vmax, FXa generation assay was over 3.

What about the Vmax, FXa generation assay (RRAPGkLTCLASYCWLFWTGIA [25]) of the same substance?
Its Vmax, FXa generation assay is over 2.

What about the Vmax, FXa generation assay [26] of the same substance?
Its Vmax, FXa generation assay is over 2.

What about the Vmax, FXa generation assay [27] of the same substance?
Its Vmax, FXa generation assay is over 2.
